Paper PMC2871135, “Engineering Cofactor Preference of Ketone Reducing Biocatalysts: A Mutagenesis Study on a γ-Diketone Reductase from the Yeast Saccharomyces cerevisiae Serving as an Example” (International Journal of Molecular Sciences, 2010)

B1: Gre2p (Saccharomyces cerevisiae S288C) (protein)
chain: MSVFVSGANGFIAQHIVDLLLKEDYKVIGSARSQEKAENLTEAFGNNPKFSMEVVPDISKLDAFDHVFQKHGKDIKIVLHTASPFCFDITDSERDLLIPAVNGVKGILHSIKKYAADSVERVVLTSSYAAVFDMAKENDKSLTFNEESWNPATWESCQSDPVNAYCGSKKFAEKAAWEFLEENRDSVKFELTAVNPVYVFGPQMFDKDVKKHLNTSCELVNSLMHLSPEDKIPELFGGYIDVRDVAKAHLVAFQKRETIGQRLIVSEARFTMQDVLDILNEDFPVLKGNIPVGKPGSGATHNTLGATLDNKKSKKLLGFKFRNLKETIDDTASQILKFEGRI
notes: GRE2 subcloned from p423-GPD-YOL151w into pRSET B, expressed in E. coli BL21(DE3) pLysS
B2: Gre2p (Saccharomyces cerevisiae S288C; N9E) (protein)
chain: MSVFVSGAEGFIAQHIVDLLLKEDYKVIGSARSQEKAENLTEAFGNNPKFSMEVVPDISKLDAFDHVFQKHGKDIKIVLHTASPFCFDITDSERDLLIPAVNGVKGILHSIKKYAADSVERVVLTSSYAAVFDMAKENDKSLTFNEESWNPATWESCQSDPVNAYCGSKKFAEKAAWEFLEENRDSVKFELTAVNPVYVFGPQMFDKDVKKHLNTSCELVNSLMHLSPEDKIPELFGGYIDVRDVAKAHLVAFQKRETIGQRLIVSEARFTMQDVLDILNEDFPVLKGNIPVGKPGSGATHNTLGATLDNKKSKKLLGFKFRNLKETIDDTASQILKFEGRI
notes: as for B1

Legend:
[1] = substrate: NC(=O)C1=CN([C@@H]2O[C@H](COP(=O)(O)OP(=O)(O)OC[C@H]3O[C@@H](n4cnc5c(N)ncnc54)[C@H](O)[C@@H]3O)[C@@H](O)[C@H]2O)C=CC1; test: cells, lysate or membranes; format: biochemical, Saccharomyces cerevisiae; details: 10 mM 2,5-hexanedione as co-substrate, sodium phosphate pH 7.0, 30 °C, cofactor varied 0.1-4 mM, enzyme enriched from E. coli extract, not homogeneous
[2] = substrate: NC(=O)C1=CN([C@@H]2O[C@H](COP(=O)(O)OP(=O)(O)OC[C@H]3O[C@@H](n4cnc5c(N)ncnc54)[C@H](OP(=O)(O)O)[C@@H]3O)[C@@H](O)[C@H]2O)C=CC1; test: cells, lysate or membranes; format: biochemical, Saccharomyces cerevisiae; details: 10 mM 2,5-hexanedione as co-substrate, sodium phosphate pH 7.0, 30 °C, cofactor varied 0.1-4 mM, enzyme enriched from E. coli extract, not homogeneous

| Protein | Km [1] [µM] | Vmax [1] [µmol/min/mg] | Km [2] [µM] | Vmax [2] [µmol/min/mg] |
| --- | --- | --- | --- | --- |
| B1 | 1450 | 0.081 | 38 | 0.288 |
| B2 | 960 | 0.147 | 1520 | 0.272 |
